We go through one molecule from patent CN117050178A (BEIJING BIOSYSTEMS BIOLOGICAL TECH CO LTD, dated 2023).

The target of one experiment is T1, 人IL-7蛋白 (human, UniProt P13232 26-177).
T1 construct: also called 人源IL-7
T1 sequence (looked up): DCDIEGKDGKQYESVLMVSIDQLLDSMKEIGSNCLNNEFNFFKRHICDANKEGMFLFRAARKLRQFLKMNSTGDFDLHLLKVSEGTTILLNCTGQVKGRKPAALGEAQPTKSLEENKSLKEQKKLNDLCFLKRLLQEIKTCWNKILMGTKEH
The experiment is described as follows: indirect ELISA, cell supernatant on coated human IL-7 (2 μg/mL).

The target of the next experiment is 人源IL-21蛋白 (human, UniProt Q9HBE4 32-162, limits assumed). Put plainly: indirect ELISA, cell supernatant on coated cytokine.
Chain of 人源IL-21蛋白 (Q9HBE4 32-162 limits assumed): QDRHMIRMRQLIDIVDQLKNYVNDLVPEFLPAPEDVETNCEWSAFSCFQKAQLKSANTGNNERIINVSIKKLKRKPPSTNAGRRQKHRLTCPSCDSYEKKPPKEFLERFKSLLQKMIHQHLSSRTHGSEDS
Another experiment concerns the target 人源GM-CSF蛋白 (human, UniProt P04141 18-144). The experiment is described as above.
The target in another experiment is 人源TNF-alpha蛋白 (human, UniProt P01375 77-233). The description is as above.
Chain of 人源TNF-alpha蛋白 (P01375 77-233 limits assumed): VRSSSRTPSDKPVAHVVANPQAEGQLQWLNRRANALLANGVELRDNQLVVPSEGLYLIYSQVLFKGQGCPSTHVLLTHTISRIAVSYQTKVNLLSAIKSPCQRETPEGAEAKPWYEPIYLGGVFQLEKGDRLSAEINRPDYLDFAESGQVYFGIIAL
For another experiment, the target named is 人源IL-2蛋白 (human, UniProt P60568 21-153). The experiment is described as above.
Chain of 人源IL-2蛋白 (P60568 21-153 limits assumed): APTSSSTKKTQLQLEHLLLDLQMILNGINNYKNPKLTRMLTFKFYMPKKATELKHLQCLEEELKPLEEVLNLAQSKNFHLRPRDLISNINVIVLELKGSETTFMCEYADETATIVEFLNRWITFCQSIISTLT
The target in another experiment is 人源IL-10蛋白 (human, UniProt P22301 19-178). Described as above.
Chain of 人源IL-10蛋白 (P22301 19-178 limits assumed): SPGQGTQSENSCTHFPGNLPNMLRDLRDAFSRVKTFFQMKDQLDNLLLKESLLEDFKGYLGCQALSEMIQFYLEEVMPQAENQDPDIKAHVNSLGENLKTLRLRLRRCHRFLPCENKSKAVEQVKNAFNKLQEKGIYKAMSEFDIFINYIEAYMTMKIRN
Another experiment has as its target 人源IL-15蛋白 (human, UniProt P40933 49-162). The description is as above.
Another experiment deals with 人源IL-6蛋白 (human, UniProt P05231 30-212). Described as above.
The next experiment addresses T2, 人源IL-4蛋白 (human, UniProt P05112 25-153).
T2 sequence (looked up): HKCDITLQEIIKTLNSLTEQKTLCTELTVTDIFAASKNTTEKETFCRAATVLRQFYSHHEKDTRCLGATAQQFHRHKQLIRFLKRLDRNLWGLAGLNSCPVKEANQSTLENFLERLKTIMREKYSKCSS
The description is as above.

Chain of 人源GM-CSF蛋白 (P04141 18-144 limits assumed): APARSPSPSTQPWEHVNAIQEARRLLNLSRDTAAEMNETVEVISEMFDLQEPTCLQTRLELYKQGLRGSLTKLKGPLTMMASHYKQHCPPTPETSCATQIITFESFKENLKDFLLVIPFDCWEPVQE
Chain of 人源IL-15蛋白 (P40933 49-162 limits assumed): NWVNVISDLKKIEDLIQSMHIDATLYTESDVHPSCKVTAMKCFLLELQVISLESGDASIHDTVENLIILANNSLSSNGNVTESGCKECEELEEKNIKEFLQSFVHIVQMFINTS

B1: 抗体8E8B10 (antibody, V domains shown)
VH: QVQLQQPGAELLRPGASVKLSCKTSGFTFTRYWINWVKQRPGQGLEWIGMIDPFDSETHYNQVFKDKATLTVDKSSSTAYMYMSSLTSEDSAVYYCARYFVYFDTVDFWGQGTSLTVSS
VL: DVVMTQTPLSLPVSLGGQASISCRSGQSLVHSDGNTYLHWYLQRPGQSPKLLIYKVSNRFSGVPDRFSGSGSGTNFTLKISRVEAEDLGVYFCSQNTHVPYTFGGGTKLEMK
notes: Mouse hybridoma monoclonal antibody; also called Clone 8E8B10; 克隆号8E8B10
For the molecule B1, the binding result was “binds” in the experiment with 人IL-7蛋白; “no binding (tested: antigen coated at 2 μg/mL)” in the experiment with 人源IL-21蛋白; “no binding (tested: antigen coated at 2 μg/mL)” in the experiment with 人源GM-CSF蛋白; “no binding (tested: antigen coated at 2 μg/mL)” in the experiment with 人源TNF-alpha蛋白; “no binding (tested: antigen coated at 2 μg/mL)” in the experiment with 人源IL-2蛋白; “no binding (tested: antigen coated at 2 μg/mL)” with 人源IL-10蛋白. Further, the binding result in the experiment with 人源IL-15蛋白, with 人源IL-6蛋白 and with 人源IL-4蛋白 was “no binding (tested: antigen coated at 2 μg/mL)” each time.
